# Source: publication PMC12416549 (2024)
# T1: TNFR1 (Homo sapiens, UniProt P19438)
# T1 chain: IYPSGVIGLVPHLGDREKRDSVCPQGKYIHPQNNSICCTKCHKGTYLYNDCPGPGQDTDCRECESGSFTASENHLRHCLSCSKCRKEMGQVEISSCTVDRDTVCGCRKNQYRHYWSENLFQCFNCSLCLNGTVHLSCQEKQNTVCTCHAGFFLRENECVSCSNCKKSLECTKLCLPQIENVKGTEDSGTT
# Biological target: T1, TNFR1
# Experiment: yeast display SC50
row,Binder,apparent Kd (screen)
1,M1W (designed binder) WTLQELLREEALRRAEAEAFRYALELLAEKFPEQKEYLLDLAEEIESQIRSLSGVDVEDVRKFLDKEWAWVKELLAEHPAELAEVEAARAARLAELRAEVEAKVAA,0.653 nM
2,A102E (designed binder) MTLQELLREEALRRAEAEAFRYALELLAEKFPEQKEYLLDLAEEIESQIRSLSGVDVEDVRKFLDKEWAWVKELLAEHPAELAEVEAARAARLAELRAEVEEKVAA,0.49 nM
3,A91F (designed binder) MTLQELLREEALRRAEAEAFRYALELLAEKFPEQKEYLLDLAEEIESQIRSLSGVDVEDVRKFLDKEWAWVKELLAEHPAELAEVEAARAFRLAELRAEVEAKVAA,0.49 nM
4,A90D (designed binder) MTLQELLREEALRRAEAEAFRYALELLAEKFPEQKEYLLDLAEEIESQIRSLSGVDVEDVRKFLDKEWAWVKELLAEHPAELAEVEAARDARLAELRAEVEAKVAA,0.446 nM
5,A90C (designed binder) MTLQELLREEALRRAEAEAFRYALELLAEKFPEQKEYLLDLAEEIESQIRSLSGVDVEDVRKFLDKEWAWVKELLAEHPAELAEVEAARCARLAELRAEVEAKVAA,0.718 nM
6,L7T (designed binder) MTLQELTREEALRRAEAEAFRYALELLAEKFPEQKEYLLDLAEEIESQIRSLSGVDVEDVRKFLDKEWAWVKELLAEHPAELAEVEAARAARLAELRAEVEAKVAA,18.3 nM
7,Q48N (designed binder) MTLQELLREEALRRAEAEAFRYALELLAEKFPEQKEYLLDLAEEIESNIRSLSGVDVEDVRKFLDKEWAWVKELLAEHPAELAEVEAARAARLAELRAEVEAKVAA,0.49 nM
8,L74S (designed binder) MTLQELLREEALRRAEAEAFRYALELLAEKFPEQKEYLLDLAEEIESQIRSLSGVDVEDVRKFLDKEWAWVKESLAEHPAELAEVEAARAARLAELRAEVEAKVAA,2.25 nM
9,H78L (designed binder) MTLQELLREEALRRAEAEAFRYALELLAEKFPEQKEYLLDLAEEIESQIRSLSGVDVEDVRKFLDKEWAWVKELLAELPAELAEVEAARAARLAELRAEVEAKVAA,1.86 nM
10,V57T (designed binder) MTLQELLREEALRRAEAEAFRYALELLAEKFPEQKEYLLDLAEEIESQIRSLSGVDTEDVRKFLDKEWAWVKELLAEHPAELAEVEAARAARLAELRAEVEAKVAA,1.05 nM
11,L24C (designed binder) MTLQELLREEALRRAEAEAFRYACELLAEKFPEQKEYLLDLAEEIESQIRSLSGVDVEDVRKFLDKEWAWVKELLAEHPAELAEVEAARAARLAELRAEVEAKVAA,0.593 nM
12,A91N (designed binder) MTLQELLREEALRRAEAEAFRYALELLAEKFPEQKEYLLDLAEEIESQIRSLSGVDVEDVRKFLDKEWAWVKELLAEHPAELAEVEAARANRLAELRAEVEAKVAA,0.593 nM
13,L39T (designed binder) MTLQELLREEALRRAEAEAFRYALELLAEKFPEQKEYLTDLAEEIESQIRSLSGVDVEDVRKFLDKEWAWVKELLAEHPAELAEVEAARAARLAELRAEVEAKVAA,2.05 nM
14,L52M (designed binder) MTLQELLREEALRRAEAEAFRYALELLAEKFPEQKEYLLDLAEEIESQIRSMSGVDVEDVRKFLDKEWAWVKELLAEHPAELAEVEAARAARLAELRAEVEAKVAA,15.2 nM
15,K103Y (designed binder) MTLQELLREEALRRAEAEAFRYALELLAEKFPEQKEYLLDLAEEIESQIRSLSGVDVEDVRKFLDKEWAWVKELLAEHPAELAEVEAARAARLAELRAEVEAYVAA,0.869 nM

# Further lines, results first:
row,apparent Kd (screen),Binder
1,1.69 nM,L52F (designed binder) MTLQELLREEALRRAEAEAFRYALELLAEKFPEQKEYLLDLAEEIESQIRSFSGVDVEDVRKFLDKEWAWVKELLAEHPAELAEVEAARAARLAELRAEVEAKVAA
2,0.229 nM,I45P (designed binder) MTLQELLREEALRRAEAEAFRYALELLAEKFPEQKEYLLDLAEEPESQIRSLSGVDVEDVRKFLDKEWAWVKELLAEHPAELAEVEAARAARLAELRAEVEAKVAA
3,0.539 nM,E29C (designed binder) MTLQELLREEALRRAEAEAFRYALELLACKFPEQKEYLLDLAEEIESQIRSLSGVDVEDVRKFLDKEWAWVKELLAEHPAELAEVEAARAARLAELRAEVEAKVAA
4,0.869 nM,A83I (designed binder) MTLQELLREEALRRAEAEAFRYALELLAEKFPEQKEYLLDLAEEIESQIRSLSGVDVEDVRKFLDKEWAWVKELLAEHPAELIEVEAARAARLAELRAEVEAKVAA
5,1.4 nM,L93G (designed binder) MTLQELLREEALRRAEAEAFRYALELLAEKFPEQKEYLLDLAEEIESQIRSLSGVDVEDVRKFLDKEWAWVKELLAEHPAELAEVEAARAARGAELRAEVEAKVAA
6,0.539 nM,E73S (designed binder) MTLQELLREEALRRAEAEAFRYALELLAEKFPEQKEYLLDLAEEIESQIRSLSGVDVEDVRKFLDKEWAWVKSLLAEHPAELAEVEAARAARLAELRAEVEAKVAA
7,1.16 nM,K35E (designed binder) MTLQELLREEALRRAEAEAFRYALELLAEKFPEQEEYLLDLAEEIESQIRSLSGVDVEDVRKFLDKEWAWVKELLAEHPAELAEVEAARAARLAELRAEVEAKVAA
8,0.49 nM,A98C (designed binder) MTLQELLREEALRRAEAEAFRYALELLAEKFPEQKEYLLDLAEEIESQIRSLSGVDVEDVRKFLDKEWAWVKELLAEHPAELAEVEAARAARLAELRCEVEAKVAA
9,26.9 nM,G54E (designed binder) MTLQELLREEALRRAEAEAFRYALELLAEKFPEQKEYLLDLAEEIESQIRSLSEVDVEDVRKFLDKEWAWVKELLAEHPAELAEVEAARAARLAELRAEVEAKVAA
10,2.48 nM,V55R (designed binder) MTLQELLREEALRRAEAEAFRYALELLAEKFPEQKEYLLDLAEEIESQIRSLSGRDVEDVRKFLDKEWAWVKELLAEHPAELAEVEAARAARLAELRAEVEAKVAA
11,0.593 nM,L12W (designed binder) MTLQELLREEAWRRAEAEAFRYALELLAEKFPEQKEYLLDLAEEIESQIRSLSGVDVEDVRKFLDKEWAWVKELLAEHPAELAEVEAARAARLAELRAEVEAKVAA
12,0.956 nM,A88V (designed binder) MTLQELLREEALRRAEAEAFRYALELLAEKFPEQKEYLLDLAEEIESQIRSLSGVDVEDVRKFLDKEWAWVKELLAEHPAELAEVEAVRAARLAELRAEVEAKVAA
13,0.405 nM,A11C (designed binder) MTLQELLREECLRRAEAEAFRYALELLAEKFPEQKEYLLDLAEEIESQIRSLSGVDVEDVRKFLDKEWAWVKELLAEHPAELAEVEAARAARLAELRAEVEAKVAA
14,2.73 nM,D56I (designed binder) MTLQELLREEALRRAEAEAFRYALELLAEKFPEQKEYLLDLAEEIESQIRSLSGVIVEDVRKFLDKEWAWVKELLAEHPAELAEVEAARAARLAELRAEVEAKVAA
15,0.593 nM,L64N (designed binder) MTLQELLREEALRRAEAEAFRYALELLAEKFPEQKEYLLDLAEEIESQIRSLSGVDVEDVRKFNDKEWAWVKELLAEHPAELAEVEAARAARLAELRAEVEAKVAA
16,0.869 nM,D59Q (designed binder) MTLQELLREEALRRAEAEAFRYALELLAEKFPEQKEYLLDLAEEIESQIRSLSGVDVEQVRKFLDKEWAWVKELLAEHPAELAEVEAARAARLAELRAEVEAKVAA
17,0.653 nM,A105C (designed binder) MTLQELLREEALRRAEAEAFRYALELLAEKFPEQKEYLLDLAEEIESQIRSLSGVDVEDVRKFLDKEWAWVKELLAEHPAELAEVEAARAARLAELRAEVEAKVCA
18,0.593 nM,A87N (designed binder) MTLQELLREEALRRAEAEAFRYALELLAEKFPEQKEYLLDLAEEIESQIRSLSGVDVEDVRKFLDKEWAWVKELLAEHPAELAEVENARAARLAELRAEVEAKVAA
19,0.79 nM,L96W (designed binder) MTLQELLREEALRRAEAEAFRYALELLAEKFPEQKEYLLDLAEEIESQIRSLSGVDVEDVRKFLDKEWAWVKELLAEHPAELAEVEAARAARLAEWRAEVEAKVAA
20,0.593 nM,A91H (designed binder) MTLQELLREEALRRAEAEAFRYALELLAEKFPEQKEYLLDLAEEIESQIRSLSGVDVEDVRKFLDKEWAWVKELLAEHPAELAEVEAARAHRLAELRAEVEAKVAA
